The values that follow come from publication PMC5665649 (eLife, 2017).

Data set [1] concerns the target GluA2 amino terminal domain (ATD), DyLight 488-labeled. Nature of the data set: AUC; direct Lamm equation fits, done here, of previously reported SV data for GluA2 (Zhao et al., 2013d) and GluA3 (Zhao et al., 2012); homodimer.
The target in data set [2] is EGFP-GluA1 amino terminal domain fusion protein (UniProt P19490). Nature of the data set: AUC; FDS-SV titration for hetero-dimerization: constant low concentration (50 pM-1 nM) of the ATD carrying the fluorophore, unlabeled partner from 0.2 nM up to µM; sw isotherm fit with coupled competitive homo- and hetero-dimerization model, homodimer KD fixed; 20 °C, 50,000 rpm, 0.1 mg/mL BSA.

The target of data set [3] is GluA2 amino terminal domain (ATD), DyLight 488-labeled. Put plainly: AUC; homodimer KD of GluA2 as given in Table 2 under UL GluA2 and DL-GluA2; the experiment itself is not described in this paper.
Data set [4] addresses GluA3 amino terminal domain (ATD), unlabeled. Nature of the data set: AUC; direct Lamm equation fits, done here, of previously reported SV data for GluA2 (Zhao et al., 2013d) and GluA3 (Zhao et al., 2012); homodimer.
Data set [5] deals with EGFP-GluA4 amino terminal domain fusion protein (UniProt P19493). Put plainly: AUC; FDS-SV titration for hetero-dimerization: constant low concentration (50 pM-1 nM) of the ATD carrying the fluorophore, unlabeled partner from 0.2 nM up to µM; sw isotherm fit with coupled competitive homo- and hetero-dimerization model, homodimer KD fixed; 20 °C, 50,000 rpm, 0.1 mg/mL BSA.
Data set [6] has as its target GluA2 amino terminal domain (ATD), DyLight 488-labeled. The description is as above.
Data set [7] concerns the target GluK1 amino terminal domain (ATD) G213N/M215T, DyLight 488-labeled. Put plainly: AUC; fluorescence-detected sedimentation velocity (FDS-SV), tracer titration for self-association: 0.2-1 nM DyLight 488-labeled ATD with a series of the same unlabeled ATD; sw isotherm fit with monomer-dimer model (dimer to monomers); 20 °C, 50,000 rpm, 0.1 mg/mL BSA.
The target of data set [8] is GluK2 ATD (Rattus norvegicus) (UniProt P42260). The following applies: cited from earlier work.
Data set [9] deals with GluK2 amino terminal domain (ATD) G215N/M217T, DyLight 488-labeled (UniProt P42260). Put plainly: AUC; FDS-SV titration for hetero-dimerization: constant low concentration (50 pM-1 nM) of the ATD carrying the fluorophore, unlabeled partner from 0.2 nM up to µM; sw isotherm fit with coupled competitive homo- and hetero-dimerization model, homodimer KD fixed; 20 °C, 50,000 rpm, 0.1 mg/mL BSA.

Data set [10] deals with GluK1 amino terminal domain (ATD) G213N/M215T, DyLight 488-labeled. The data set is described as above.
For data set [11], the target named is GluK4 amino terminal domain (ATD), unlabeled (UniProt Q01812). Put plainly: AUC; sedimentation velocity with absorbance detection at 280 nm, unlabeled GluK4 0.3-29 µM; 20 °C, 50,000 rpm.
Data set [12] concerns the target GluK5 ATD (Rattus norvegicus) (UniProt Q63273). The conditions noted are these: cited from earlier work.
Data set [13] deals with the molecule itself. Nature of the data set: AUC; FDS-SV, dilution series of the fluorescent protein alone (DyLight 488-GluK3 50 pM-1.2 µM; EGFP-GluA1 100 pM-1.2 µM; EGFP-GluA4 500 pM-1.2 µM); c(s) and sw isotherm, monomer-dimer model (dimer to monomers); 20 °C, 50,000 rpm, 0.1 mg/mL BSA.
Data set [14] concerns the molecule itself. The data set is described as above. This is another data set of the same source.
The target of data set [15] is T1, GluK2 amino terminal domain (ATD) G215N/M217T, DyLight 488-labeled (UniProt P42260 32-420, G215N | M217T, DyLight 488 (NHS ester-activated), labeling ratios typically 0.9-1.3, sites not stated).
T1 construct: signal peptide in the construct; GluK2 kainate receptor ATD cDNA with native signal peptide, last residue Lys389; N-linked glycosylation site inserted in the lateral face; Same construct as m3, chemically labeled; also called DL-GluK2; DyLight 488-labeled GluK2; source: HEK cell suspension cultures, transient transfection (PEI), secreted into medium; purified (Ni2+ HiTrap chelating, thrombin …)
T1 sequence (looked up): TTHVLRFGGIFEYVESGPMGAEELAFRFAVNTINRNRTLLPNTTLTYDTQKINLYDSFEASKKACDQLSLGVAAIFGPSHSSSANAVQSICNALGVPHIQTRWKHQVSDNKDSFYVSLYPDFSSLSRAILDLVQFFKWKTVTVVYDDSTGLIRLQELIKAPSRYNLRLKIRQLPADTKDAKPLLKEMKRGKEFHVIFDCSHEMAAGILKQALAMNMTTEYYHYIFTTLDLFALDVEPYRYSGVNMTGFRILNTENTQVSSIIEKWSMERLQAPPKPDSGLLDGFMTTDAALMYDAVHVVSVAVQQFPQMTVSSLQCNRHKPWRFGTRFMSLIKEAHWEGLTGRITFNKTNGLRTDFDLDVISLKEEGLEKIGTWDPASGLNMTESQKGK
Nature of the data set: AUC; fluorescence-detected sedimentation velocity (FDS-SV), tracer titration for self-association: 0.2-1 nM DyLight 488-labeled ATD with a series of the same unlabeled ATD; sw isotherm fit with monomer-dimer model (dimer to monomers); 20 °C, 50,000 rpm, 0.1 mg/mL BSA. The conditions noted are these: both partners purified.

The target of data set [16] is T2, GluK5 amino terminal domain (ATD), DyLight 488-labeled.
T2 sequence (Q63273 whole entry, species assumed, looked up): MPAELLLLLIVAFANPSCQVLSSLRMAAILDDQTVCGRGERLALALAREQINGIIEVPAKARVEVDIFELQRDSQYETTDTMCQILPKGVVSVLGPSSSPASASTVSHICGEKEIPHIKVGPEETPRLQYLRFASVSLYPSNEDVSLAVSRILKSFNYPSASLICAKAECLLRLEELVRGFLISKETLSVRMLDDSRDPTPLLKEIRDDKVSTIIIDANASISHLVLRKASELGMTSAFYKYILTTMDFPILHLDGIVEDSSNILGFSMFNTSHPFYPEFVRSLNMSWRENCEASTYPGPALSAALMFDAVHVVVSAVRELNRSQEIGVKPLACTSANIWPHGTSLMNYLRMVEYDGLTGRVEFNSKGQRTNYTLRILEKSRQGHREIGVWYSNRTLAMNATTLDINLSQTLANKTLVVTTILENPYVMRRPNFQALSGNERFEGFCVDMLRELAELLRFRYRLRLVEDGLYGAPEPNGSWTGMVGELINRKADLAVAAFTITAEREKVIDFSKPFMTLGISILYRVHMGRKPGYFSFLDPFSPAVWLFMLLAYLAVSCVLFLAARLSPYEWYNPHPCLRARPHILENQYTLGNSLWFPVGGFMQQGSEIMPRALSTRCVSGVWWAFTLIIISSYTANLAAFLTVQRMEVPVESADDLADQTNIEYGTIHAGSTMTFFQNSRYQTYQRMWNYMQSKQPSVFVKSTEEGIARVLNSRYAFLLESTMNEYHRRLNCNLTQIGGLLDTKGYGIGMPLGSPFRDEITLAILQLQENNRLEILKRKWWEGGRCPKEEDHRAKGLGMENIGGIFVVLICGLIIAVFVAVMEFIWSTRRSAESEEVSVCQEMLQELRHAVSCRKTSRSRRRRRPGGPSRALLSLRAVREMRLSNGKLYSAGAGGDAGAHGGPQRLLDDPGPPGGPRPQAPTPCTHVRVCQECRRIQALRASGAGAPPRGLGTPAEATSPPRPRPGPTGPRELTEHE
Put plainly: AUC; FDS-SV titration for hetero-dimerization: constant low concentration (50 pM-1 nM) of the ATD carrying the fluorophore, unlabeled partner from 0.2 nM up to µM; sw isotherm fit with coupled competitive homo- and hetero-dimerization model, homodimer KD fixed; 20 °C, 50,000 rpm, 0.1 mg/mL BSA.

Data set [17] deals with the molecule itself. Nature of the data set: AUC; FDS-SV, dilution series of the fluorescent protein alone (DyLight 488-GluK3 50 pM-1.2 µM; EGFP-GluA1 100 pM-1.2 µM; EGFP-GluA4 500 pM-1.2 µM); c(s) and sw isotherm, monomer-dimer model (dimer to monomers); 20 °C, 50,000 rpm, 0.1 mg/mL BSA. This is another data set of the same source.

Like-named read-outs stand apart in the source and are kept apart here.

Chain of EGFP-GluA4 amino terminal domain fusion protein (P19493 21-413): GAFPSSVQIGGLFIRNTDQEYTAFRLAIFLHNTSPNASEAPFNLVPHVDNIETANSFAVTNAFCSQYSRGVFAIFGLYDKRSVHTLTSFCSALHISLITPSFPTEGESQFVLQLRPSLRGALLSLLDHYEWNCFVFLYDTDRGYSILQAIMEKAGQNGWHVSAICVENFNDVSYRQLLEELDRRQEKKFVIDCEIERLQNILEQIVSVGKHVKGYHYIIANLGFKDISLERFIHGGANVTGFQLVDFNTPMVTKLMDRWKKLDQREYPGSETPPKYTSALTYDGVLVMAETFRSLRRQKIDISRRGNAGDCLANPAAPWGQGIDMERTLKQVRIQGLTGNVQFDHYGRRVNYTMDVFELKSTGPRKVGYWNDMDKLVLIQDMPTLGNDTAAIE

As to “GluA2 amino terminal domain (ATD), unlabeled (domain or fragment)”, in data set [1], the off-rate constant (koff) (usually the rate constant with which the complex falls apart) is greater than 0.003 s⁻¹ and the on-rate constant (kon) (as a rule, a measure of how fast the partners come together) is greater than 140000 M⁻¹ s⁻¹. Moreover, the Kd (usually the constant that tells how readily two partners part at equilibrium) in [2] was found to be 0.0029 µM. Further, in data set [3], the Kd worked out at 0.0211 µM.

“GluA3 amino terminal domain (ATD), unlabeled (domain or fragment)” returned a koff in data set [4] greater than 0.003 s⁻¹. In addition, the dissociation constant (Kd) in data set [5] came to 0.091 µM; in [6], 0.0013 µM; in data set [2], 0.0083 µM.

For the molecule “GluK1 amino terminal domain (ATD) G213N/M215T, unlabeled (domain or fragment)”, the Kd in [7] came to 1.2 µM.

On to GluK2 ATD (from UniProt P42260), for which the dissociation constant Kd in data set [8] is 0.25 µM.

Take “GluK4 amino terminal domain (ATD), unlabeled (from UniProt Q01812 21-399) (domain or fragment)”: the Kd in [9] is 0.057 µM; in data set [10], 0.146 µM; in data set [11], greater than 1000 µM.

In the case of GluK5 ATD (from UniProt Q63273), in data set [12], the dissociation constant (Kd) is 350 µM.

Regarding “GluK5 amino terminal domain (ATD), unlabeled (domain or fragment)”, the Kd in data set [9] amounted to 0.012 µM; in data set [10], 0.018 µM.

B1: GluK3 amino terminal domain (ATD) T221N/Y223S, DyLight 488-labeled (domain or fragment, UniProt P42264 32-423, looked up)
chain: MPHVIRIGGIFEYADGPNAQVMNAEEHAFRFSANIINRNRTLLPNTTLTYDIQRIHFHDSFEATKKACDQLALGVVAIFGPSQGSCTNAVQSICNALEVPHIQLRWKHHPLDNKDTFYVNLYPDYASLSHAILDLVQSLKWRSATVVYDDSTGLIRLQELIMAPSRYNIRLKIRQLPIDSDDSRPLLKEMKRGREFRIIFDCSHTMAAQILKQAMAMGMMNESYHFIFTTLDLYALDLEPYRYSGVNLTGFRILNVDNAHVSAIVEKWSMERLQAAPRAESGLLDGVMMTDAALLYDAVHIVSVCYQRASQMTVNSLQCHRHKPWRFGGRFMNFIKEAQWEGLTGRIVFNKTSGLRTDFDLDIISLKEDGLEKVGVWSPADGLNITEVAKGR
modifications: DyLight 488 (NHS ester-activated), labeling ratios typically 0.9-1.3, sites not stated
notes: signal peptide in the construct; GluK3 kainate receptor ATD cDNA with native signal peptide, last residue Arg392; N-linked glycosylation site inserted in the lateral face; also called DL-GluK3; DL GluK3; source: HEK cell suspension cultures, transient transfection (PEI), secreted into medium; purified (Ni2+ HiTrap chelating, thrombin digestion, ion exchange); labeled, Superdex 75
As for B1, the stoichiometry N (in general, a count of units in the complex or per binding partner) in data set [13] stood at 2. This molecule displayed a Kd in data set [14] of less than 0.05 nM.

B2: GluK2 amino terminal domain (ATD) G215N/M217T, unlabeled (domain or fragment, UniProt P42260 32-420, looked up)
chain: TTHVLRFGGIFEYVESGPMGAEELAFRFAVNTINRNRTLLPNTTLTYDTQKINLYDSFEASKKACDQLSLGVAAIFGPSHSSSANAVQSICNALGVPHIQTRWKHQVSDNKDSFYVSLYPDFSSLSRAILDLVQFFKWKTVTVVYDDSTGLIRLQELIKAPSRYNLRLKIRQLPADTKDAKPLLKEMKRGKEFHVIFDCSHEMAAGILKQALAMNMTTEYYHYIFTTLDLFALDVEPYRYSGVNMTGFRILNTENTQVSSIIEKWSMERLQAPPKPDSGLLDGFMTTDAALMYDAVHVVSVAVQQFPQMTVSSLQCNRHKPWRFGTRFMSLIKEAHWEGLTGRITFNKTNGLRTDFDLDVISLKEEGLEKIGTWDPASGLNMTESQKGK
notes: signal peptide in the construct; GluK2 kainate receptor ATD cDNA with native signal peptide, last residue Lys389; N-linked glycosylation site inserted in the lateral face; also called UL GluK2; GluK2 ATD; source: HEK cell suspension cultures, transient transfection (PEI), secreted into medium; purified (Ni2+ HiTrap chelating, thrombin digestion, ion exchange)
For B2, the results for the dissociation constant Kd in data set [15], in data set [10] and in data set [16] were 0.163 µM, 1.8 µM and 0.0094 µM, respectively.

B3: EGFP-GluA1 amino terminal domain fusion protein (domain or fragment, UniProt P19490 19-21, looked up)
chain: VGANFPNNIQIGGLFPNQQSQEHAAFRFALSQLTEPPKLLPQIDIVNISDSFEMTYRFCSQFSKGVYAIFGFYERRTVNMLTSFCGALHVCFITPSFPVDTSNQFVLQLRPELQEALISIIDHYKWQTFVYIYDADRGLSVLQRVLDTAAEKNWQVTAVNILTTTEEGYRMLFQDLEKKKERLVVVDCESERLNAILGQIVKLEKNGIGYHYILANLGFMDIDLNKFKESGANVTGFQLVNYTDTIPARIMQQWRTSDSRDHTRVDWKRPKYTSALTYDGVKVMAEAFQSLRRQRIDISRRGNAGDCLANPAVPWGQGIDIQRALQQVRFEGLTGNVQFNEKGRRTNYTLHVIEMKHDGIRKIGYWNEDDKFVPAATDAQAGGDNSSVQ
notes: signal peptide in the construct; GluA1 signal peptide and ATD, residues Met1-Phe21, before SGSG-EGFP; GluA1 AMPA receptor ATD, residues Val17-Gln405, after EGFP-SGSG; The two printed ranges overlap (17-21); also called GluA1 ATD-EGFP; GluA1-EGFP fusion protein; source: Sf9 insect cells, baculovirus (pFastBac1), secreted into medium; purified (Ni2+ HiTrap chelating, thrombin digestion, ion …)
As to B3, in [17], the Kd was 0.0284 µM.
